These results are taken from US20170268001A1, “RNAS WITH TUMOR RADIO/CHEMO-SENSITIZING AND IMMUNOMODULATORY PROPERTIES AND METHODS OF THEIR PREPARATION AND APPLICATION” (THE UNIVERSITY OF CHICAGO, priority 2016, published 2017).

For one series, the target named is T1, RIG-I (Homo sapiens, UniProt O95786).
T1 construct: HEK293 cells overexpressing either the full length RIG-I; host or cells: HEK293; HCT116 also for the qRT-PCR validation
T1 sequence (O95786 1-925): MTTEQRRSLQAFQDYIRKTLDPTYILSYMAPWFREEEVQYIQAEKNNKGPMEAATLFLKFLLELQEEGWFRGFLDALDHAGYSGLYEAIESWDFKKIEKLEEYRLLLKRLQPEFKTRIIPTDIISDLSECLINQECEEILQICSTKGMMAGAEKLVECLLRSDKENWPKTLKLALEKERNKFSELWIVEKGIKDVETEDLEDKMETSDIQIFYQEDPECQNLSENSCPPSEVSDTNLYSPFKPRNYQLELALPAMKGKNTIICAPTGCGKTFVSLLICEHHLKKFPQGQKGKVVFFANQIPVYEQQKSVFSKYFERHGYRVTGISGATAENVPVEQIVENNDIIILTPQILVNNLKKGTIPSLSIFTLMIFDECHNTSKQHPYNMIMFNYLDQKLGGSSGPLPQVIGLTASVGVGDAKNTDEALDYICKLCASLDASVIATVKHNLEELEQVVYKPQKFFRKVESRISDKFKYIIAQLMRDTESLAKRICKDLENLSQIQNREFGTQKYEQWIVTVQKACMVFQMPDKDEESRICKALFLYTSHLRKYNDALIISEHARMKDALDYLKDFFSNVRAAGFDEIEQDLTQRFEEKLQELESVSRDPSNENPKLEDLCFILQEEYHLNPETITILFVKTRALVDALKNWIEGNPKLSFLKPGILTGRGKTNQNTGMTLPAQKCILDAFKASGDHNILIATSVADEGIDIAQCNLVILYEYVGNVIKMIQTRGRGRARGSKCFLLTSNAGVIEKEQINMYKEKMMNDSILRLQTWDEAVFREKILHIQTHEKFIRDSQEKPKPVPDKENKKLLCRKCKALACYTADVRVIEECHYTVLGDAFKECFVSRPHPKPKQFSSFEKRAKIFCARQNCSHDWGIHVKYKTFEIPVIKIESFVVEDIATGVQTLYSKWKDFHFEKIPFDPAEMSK
The series can be described thus: HEK293 IFN-beta promoter dual luciferase reporter, RNA stimulation. As to conditions: in vitro transcribed RNA, RIG-I overexpressing HEK293 cells; also activates endogenous RIG-I. The format is cell-based. How it is done:
We also used reporter HEK293 cells as simple technique to evaluate ability of the given RNA to stimulate IFN-beta production in preliminary in vitro experiments. Technically this was performed as follows: RNA stimulation of HEK293 IFN-beta reporter cells HEK293 cells were seeded in a 24-well plate overnight at a density of 1.5×10^5 cells/ml (75,000 cells/well). Cells were co-transfected with 100 ng of plasmid construct (pCAGGS empty vector, pCAGGS-RIG-I full-length, pCAGGS-RIG-I helicase-RD mutant construct, and […] mutant construct), together with 80 ng of a firefly luciferase reporter gene driven by an IFN-beta promoter and 20 ng of a Renilla luciferase (pRL-null) transfection control. Transfections were performed using a cationic lipid agent, Fugene HD (Promega), at a 3:1 lipid:DNA ratio. Twenty-four hours post-transfection, cells were then stimulated with 1 μg RNA* mixed with Fugene HD at 2:1 lipid: RNA ratio for 24 hours. 20 μl cell lysates were collected in opaque 96-well plates and analyzed for IFN-beta-luciferase and Renilla activity using a BioTek Synergy HT plate reader. The transfection efficiency across different wells was normalized by dividing the IFN-beta luciferase activity with the Renilla activity. All values were further normalized to the unstimulated controls in cells transfected with the empty vector. All pCAGGS RIG-I constructs used in this study were generous gifts from Dr. Jenish Patel and Dr. Adolfo Garcia-Sastre of The Icahn School of Medicine at Mount Sinai in New York City. Synthetic RNA comprised of various stem loop regions of the human U1 snRNA were purchased from IDT Oligos as reported in (Bernard et al., 2012). U1 stem loop I sequence: [NT] ID NO:15); U1 stem loop II sequence: [NT] ID NO:16); U1 stem loop III sequence: [NT] ID NO:17); U1 stem loop IV sequence: [NT] ID NO:18); U1 stem loops I and II sequence: [NT] ID NO:19); U1 stem loops II and III sequence: [NT] ID NO:20). In vitro transcribed U1 RNA stimulation: Full length U1 (pT7U1) plasmid was generously provided by Dr. Joan Steitz (Yale School of Medicine, Yale University). […]
Background: In a reporter assay the amount or activity of a reporter protein is the signal.

In a further series the test system is MC38 tumors. Description: MC38 tumor growth after IR (20Gy) plus intratumoral RNA with jetPEI. It counts as in vivo, mouse. The settings on record: in combination with jetPEI lipid and IR (20Gy); injected 1, 7 and 14 days post-IR. The method, then:
To further test ability of delivered RNAs to affect tumor growth we irradiated MC38 tumors at 20Gy and injected irradiated tumors with stem-loop regions of U1 or U2 at 1, 7 and 14 dayspost-IR. Tumors were grown for 17 days post IR and each 3rd day were measured as described in. As is shown in FIG. 40, injection of stem-loop structures of U1 in combination with jetPEI lipid and IR led to the 2-fold suppression of tumor growth as compared with IR only.
To further test ability of delivered synthetic RNAs (M5 and M8) to affect tumor growth we irradiated MC38 tumors at 20Gy and injected irradiated tumors 1, 7 and 14 dayspost-IR. Tumors were grown for 17 days post IR and each 3rd day were measured as described in. Injection of synthetic RNAs, M5 and M8, in combination with jetPEI lipid and IR led to the 2-fold suppression of tumor growth as compared with IR only.

B1: M5: rbRNA, RIG-I agonist, 81 nucleotides, SEQ ID NO:26 (nucleic acid)
chain: GACGAAGACCACAAAACCAGATAAAAAATTATTTTTTATCTGGTTTTGTGGTCTTCGTCTATAGTGAGTCGTATTAATTTC
modifications: listed as DNA, chemistry not given here
B1: the “IFN-beta stimulatory activity (IFN-beta luciferase reporter)” value with RIG-I is listed as “potent IFN-beta stimulatory activity”. In the series with MC38 tumors, the “suppression of tumor growth as compared with IR only” value is 2 fold.
